Data reported in the RNAGym collection of RNA variant scans (doi:10.1073/pnas.2313332121).

B1: TPR t1 (parent)
chain: GACCAAUCUGCCCUCAGAGCUCGAGAACAUCUUCGGAUGCAGAGGAGGCAGGCUUCGGUGGCGCGAUAGCGCCAACGUCCUCAACCUCCAAUGCAUCCCACCACAUGAUGAUGCCUGAAGAGCCUUGGUUUUUUG

Variants of: B1
Experiment: polymerase ribozyme fitness, log enrichment relative to wild type (log ratio); higher = more active; in vitro selection for triplet polymerase activity
Method in brief: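 Only genotypes with ≥10 input reads and ≥1 read per output were kept after Illumina sequencing of input and output libraries. These libraries were PCR-built, transcribed mutants of each subunit of a heterodimeric triplet polymerase ribozyme, each put through one triplicate in vitro selection round with frozen incubation at −7 °C, gel excision of extended constructs, streptavidin-bead capture and RT-PCR. Fitness is a logarithmic ratio of genotype enrichment to wild-type enrichment, from inverse-variance-weighted replicate averages, with the logarithm in base 2.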

| Variant | polymerase ribozyme fitness (log ratio) |
| --- | --- |
| C8A C89U | 0.136 |
| C8G G47U C123U | 0.786 |
| U7G A103C G120A | -2.83 |
| U7G A84G U133G G135U | 0.51 |
| C8G G23A G61U U109A U112A | -6.91 |
| C8G C89A C94G | -2.14 |
| C8G C73U C86U | 0.186 |
| C8A C80G C82G C88A C114U | -6.78 |
| C8G C11U U116C G120U | 0.747 |
| C8A G61U A83C A100C | -0.341 |
| C8A C82G | -0.777 |
| U7G C70U A83C C97A | -5.37 |
| U7G C13G | 0.14 |
| C8G C114A | 0.0806 |
| U7G U21C G47U C56U | -1.15 |
| U7G G61A C76A C94A G110C G117C | -7.29 |
| C8A C62U A74C C89A C104A U112C | -3.01 |
| U7G C94G | -0.426 |
| C8A A37G A100C | -0.161 |
| C8G A111C G113U | -3.45 |
| C8A C11U G17C | -2.13 |

| Variant | polymerase ribozyme fitness (log ratio) |
| --- | --- |
| C8G C12G C56U U106G U112G A118C U133G | -1.11 |
| C8G G63U | -0.674 |
| U7C C34G G69C G120A | -6.41 |
| U7G G77C | 0.424 |
| C8G G17U A26U G120U | -2.91 |
| C8G C98A C102A C115A | -3.34 |
| C8A C64U U78A C94G A100U C102A U112A G128A U129A G135C | -4.75 |
| C8G C31A A41U C73G U112A | -6.12 |
| U7G U21A U55G A121C | 1.32 |
| C8A G35U | -4.85 |
| U7C C40A C56G | -1.43 |
| C8G G63A A83G C85A G122A | -1.28 |
| C8A A29G C115U U126G | -2.36 |
| C8G C13A A91G U106G G117U | -3.24 |
| C8G A46G A83G U126G G127A | -1.72 |
| C8G C31A A50C G113U | -5.53 |
| U7G C70A C72U G93C C115U | -4.07 |
| C8A C64A U112C U125A | -5.5 |
| U7G U55G C82U | 0.425 |
| C8G G39U C80A | -2.47 |
| C8G C89A C114U | -0.406 |

| Variant | polymerase ribozyme fitness (log ratio) |
| --- | --- |
| U7G A95G | 0.461 |
| C8A A46U A74U A100U C102U C115A | -2.37 |
| U7G C72G | 0.441 |
| U7G C72U | 0.255 |
| C8G C53A | 0.628 |
| U7C G39A C115U G128C | -3.58 |
| C8G G36U | 0.298 |
| C8G C12U A68G G122A C123U | -1.28 |
| C8G C15U C49A G93C | -1.27 |
| C8A U14C G93U | -0.798 |
| C8G A27G C64U C72U G93U C104A A111U U125C | -3.56 |
| C8A A46G C101U | -0.289 |
| U7G C28U G48A G61A | -1.28 |
| U7G G17A G39A U55A C82G C115A U130C | -2.79 |
| C8A C34A C98G U126G | -4.07 |
| U7C G42U G47A | -1.32 |
| C8A A75U C85A A90C G93A | -3.24 |
| U7G A83U U87A A95U C124A | 0.494 |
| C8A C56G | 0.28 |
| C8G C104G U116C A121U G122U U129C | -7.72 |
| U7G C70G | -2.23 |

| Variant | polymerase ribozyme fitness (log ratio) |
| --- | --- |
| U7G C40U C72A C86U G93U C102A U106A | -5.6 |
| C8G A74U | 0.0385 |
| C8G G44C C49A | 0.0557 |
| C8A U21C G58C C82A U106G U132A | -1.35 |
| C8A G44A G57A G77A G110U C123U | -4.41 |
| C8G C73G A91G | -1.87 |
| U7C U78G C82G C99A U112G G128U | -5.9 |
| C8A G48A C101G C115U | -4.25 |
| C8G C12U U21G G39C | -1.78 |
| C8A C34G G110C U129G | -8.1 |
| C8A U112A G128U | 0.095 |
| C8G G117U | -1.44 |
| C8G G117C | -0.943 |
| C8A G48U U59G A105C U112C G120A | -1.08 |
| C8G G17U G48A G57U U112G C114U | -5.14 |
| C8A C62A U130G | -0.621 |
| C8G A111U | -1.64 |
| C8G A118U | 1.5 |
| C8A A50U U59C G63C | -4.31 |
| C8G C72U C89A A105U | -3.93 |
